Laboratory results: US11504441B2, “Radiolabeled compounds targeting the prostate-specific membrane antigen” (PROVINCIAL HEALTH SERVICES AUTHORITY, priority 2019, dated 2022)

Experiments:
[1] = tested on: PSMA-expressing LNCaP cancer xenografts; settings: mouse, in vivo
in vivo = settings: male, NODSCID 1L2RγKO, mouse, iv, total radioactivity; for excreta dose per gram or mL at 1 h: Urine uptake

SMILES	Blood: Salivary ratio [1]	Tumor: Blood ratio [1]	Tumor: Kidney ratio [1]	Tumor: Muscle ratio [1]	Tumor: Salivary ratio [1]	tissue uptake at 1 h (in vivo; Adrenal glands uptake) [%ID/g]	tissue uptake at 1 h (in vivo; Blood uptake) [%ID/g]	tissue uptake at 1 h (in vivo; Bone uptake) [%ID/g]	tissue uptake at 1 h (in vivo; Brain uptake) [%ID/g]	tissue uptake at 1 h (in vivo; Fat uptake) [%ID/g]	tissue uptake at 1 h (in vivo; Heart uptake) [%ID/g]	tissue uptake at 1 h (in vivo; Intestine uptake) [%ID/g]	tissue uptake at 1 h (in vivo; Kidneys uptake) [%ID/g]	tissue uptake at 1 h (in vivo; Lacrimal uptake) [%ID/g]	tissue uptake at 1 h (in vivo; Liver uptake) [%ID/g]	tissue uptake at 1 h (in vivo; Lungs uptake) [%ID/g]	tissue uptake at 1 h (in vivo; Muscle uptake) [%ID/g]	tissue uptake at 1 h (in vivo; Pancreas uptake) [%ID/g]	tissue uptake at 1 h (in vivo; Salivary uptake) [%ID/g]	tissue uptake at 1 h (in vivo; Seminal uptake) [%ID/g]	further results
O=C(O)CCCCC(NC(=O)N[C@@H](CCCCNC(=O)[C@H](Cc1c2ccccc2cc2ccccc12)NC(=O)[C@H]1CC[C@H](CNC(=O)CN2CCN(CC(=O)O)CCN(CC(=O)O)CCN(CC(=O)O)CC2)CC1)C(=O)O)C(=O)O (single isomer, unassigned) [68Ga-HTK03189A, metal not drawn]	4.39 ± 0.44	2.41 ± 0.29	0.83 ± 0.21	16.5 ± 4.08	10.5 ± 1.07	0.35 ± 0.06	0.89 ± 0.22	0.12 ± 0.03	0.02	0.18 ± 0.11	0.24 ± 0.06	0.31 ± 0.18	2.65 ± 0.69	0.18 ± 0.18	0.34 ± 0.15	0.68 ± 0.12	0.14 ± 0.04	0.15 ± 0.04	0.2 ± 0.04	3.61 ± 4.59	Tumor uptake ([1]; male, NODSCID 1L2RγKO, iv, 1 h): 2.10 ± 0.28 % ID/g; tissue uptake at 1 h (in vivo; Spleen uptake): 0.21 ± 0.1 %ID/g; tissue uptake at 1 h (in vivo; Stomach uptake): 0.11 ± 0.06 %ID/g; tissue uptake at 1 h (in vivo; Tail uptake): 0.77 ± 0.3 %ID/g; tissue uptake at 1 h (in vivo; Testes uptake): 0.23 ± 0.11 %ID/g; tissue uptake at 1 h (in vivo; Thyroid uptake): 0.25 ± 0.05 %ID/g; excreta dose per gram or mL at 1 h (in vivo): 343 ± 54.4 %ID/g
O=C(O)C[C@H](NC(=O)N[C@@H](CCCCNC(=O)[C@H](Cc1c2ccccc2cc2ccccc12)NC(=O)[C@H]1CC[C@H](CNC(=O)CN2CCN(CC(=O)O)CCN(CC(=O)O)CCN(CC(=O)O)CC2)CC1)C(=O)O)C(=O)O [68Ga-HTK03161, metal not drawn]	5.08 ± 0.62	11.4 ± 1.73	3.03 ± 0.84	89.4 ± 36.1	57.2 ± 7.11	0.41 ± 0.07	1.13 ± 0.19	0.11 ± 0.02	0.02	0.15 ± 0.04	0.32 ± 0.05	0.31 ± 0.09	4.41 ± 1.26	0.12 ± 0.06	0.28 ± 0.05	0.75 ± 0.13	0.15 ± 0.04	0.18 ± 0.03	0.23 ± 0.05	6.22 ± 12.2	tissue uptake at 1 h (in vivo; Spleen uptake): 0.27 ± 0.06 %ID/g; tissue uptake at 1 h (in vivo; Stomach uptake): 0.1 ± 0.04 %ID/g; tissue uptake at 1 h (in vivo; Tail uptake): 0.55 ± 0.1 %ID/g; tissue uptake at 1 h (in vivo; Testes uptake): 0.54 ± 0.51 %ID/g; tissue uptake at 1 h (in vivo; Thyroid uptake): 0.29 ± 0.05 %ID/g; tissue uptake at 1 h (in vivo; Tumor uptake): 12.7 ± 1.91 %ID/g; excreta dose per gram or mL at 1 h (in vivo): 363 ± 155 %ID/g
O=C(O)CCC[C@H](NC(=O)N[C@@H](CCCCNC(=O)[C@H](Cc1ccc2ccccc2c1)NC(=O)[C@H]1CC[C@H](CNC(=O)CN2CCN(CC(=O)O)CCN(CC(=O)O)CCN(CC(=O)O)CC2)CC1)C(=O)O)C(=O)O [68Ga-HTK03169, metal not drawn]	4.39 ± 2.06	6.09 ± 2.24	1.47 ± 0.16	47.1 ± 12.3	23.2 ± 1.91	0.24 ± 0.08	0.63 ± 0.36	0.08 ± 0.03	0.02 ± 0.01	0.09 ± 0.04	0.14 ± 0.07	0.23 ± 0.16	2.18 ± 0.48	0.13 ± 0.06	0.21 ± 0.16	0.38 ± 0.17	0.08 ± 0.05	0.11 ± 0.05	0.14 ± 0.03	3.83 ± 2.93	tissue uptake at 1 h (in vivo; Spleen uptake): 0.13 ± 0.06 %ID/g; tissue uptake at 1 h (in vivo; Stomach uptake): 0.09 ± 0.11 %ID/g; tissue uptake at 1 h (in vivo; Tail uptake): 0.48 ± 0.2 %ID/g; tissue uptake at 1 h (in vivo; Testes uptake): 0.13 ± 0.07 %ID/g; tissue uptake at 1 h (in vivo; Thyroid uptake): 0.16 ± 0.07 %ID/g; tissue uptake at 1 h (in vivo; Tumor uptake): 3.19 ± 0.7 %ID/g; excreta dose per gram or mL at 1 h (in vivo): 421 ± 187 %ID/g
O=C(O)CSC[C@H](NC(=O)N[C@@H](CCCCNC(=O)[C@H](Cc1c2ccccc2cc2ccccc12)NC(=O)[C@H]1CC[C@H](CNC(=O)CN2CCN(CC(=O)O)CCN(CC(=O)O)CCN(CC(=O)O)CC2)CC1)C(=O)O)C(=O)O [68Ga-HTK03177, metal not drawn]	3.14 ± 0.19	36.1 ± 12.5	3.25 ± 1.16	220 ± 135	112 ± 33.1	0.46 ± 0.17	0.7 ± 0.06	0.1 ± 0.03	0.02	0.09 ± 0.04	0.21 ± 0.01	0.21 ± 0.02	7.76 ± 1	0.12 ± 0.06	0.33 ± 0.2	0.61 ± 0.08	0.18 ± 0.18	0.14 ± 0.01	0.22 ± 0.02	0.28 ± 0.38	tissue uptake at 1 h (in vivo; Spleen uptake): 0.42 ± 0.15 %ID/g; tissue uptake at 1 h (in vivo; Stomach uptake): 0.15 ± 0.09 %ID/g; tissue uptake at 1 h (in vivo; Tail uptake): 0.74 ± 0.12 %ID/g; tissue uptake at 1 h (in vivo; Testes uptake): 0.25 ± 0.07 %ID/g; tissue uptake at 1 h (in vivo; Thyroid uptake): 0.23 ± 0.01 %ID/g; tissue uptake at 1 h (in vivo; Tumor uptake): 24.7 ± 6.85 %ID/g; excreta dose per gram or mL at 1 h (in vivo): 400 ± 262 %ID/g
O=C(O)COC[C@H](NC(=O)N[C@@H](CCCCNC(=O)[C@H](Cc1c2ccccc2cc2ccccc12)NC(=O)[C@H]1CC[C@H](CNC(=O)CN2CCN(CC(=O)O)CCN(CC(=O)O)CCN(CC(=O)O)CC2)CC1)C(=O)O)C(=O)O [68Ga-HTK03187, metal not drawn]	4.27 ± 0.74	32.2 ± 8.53	7.67 ± 2.10	249 ± 61.2	133 ± 14.0	0.26 ± 0.06	0.67 ± 0.1	0.13 ± 0.03	0.02	0.07 ± 0.02	0.19 ± 0.04	0.23 ± 0.05	2.83 ± 0.45	0.09 ± 0.03	0.21 ± 0.05	0.52 ± 0.09	0.09 ± 0.01	0.12 ± 0.02	0.16 ± 0.02	0.65 ± 0.8	tissue uptake at 1 h (in vivo; Spleen uptake): 0.17 ± 0.02 %ID/g; tissue uptake at 1 h (in vivo; Stomach uptake): 0.08 ± 0.05 %ID/g; tissue uptake at 1 h (in vivo; Tail uptake): 0.46 ± 0.1 %ID/g; tissue uptake at 1 h (in vivo; Testes uptake): 0.15 ± 0.03 %ID/g; tissue uptake at 1 h (in vivo; Thyroid uptake): 0.18 ± 0.02 %ID/g; tissue uptake at 1 h (in vivo; Tumor uptake): 21.1 ± 3.62 %ID/g; excreta dose per gram or mL at 1 h (in vivo): 444 ± 192 %ID/g
